Source: the RNAGym collection of RNA variant scans (doi:10.1073/pnas.2313332121)

B1: TPR t1 (parent)
chain: GACCAAUCUGCCCUCAGAGCUCGAGAACAUCUUCGGAUGCAGAGGAGGCAGGCUUCGGUGGCGCGAUAGCGCCAACGUCCUCAACCUCCAAUGCAUCCCACCACAUGAUGAUGCCUGAAGAGCCUUGGUUUUUUG

Variants of: B1
Assay: polymerase ribozyme fitness, log enrichment relative to wild type (log ratio); higher = more active; in vitro selection for triplet polymerase activity
How it was run: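 Only genotypes with ≥10 input reads and ≥1 read per output were kept after Illumina sequencing of input and output libraries. These libraries were PCR-built, transcribed mutants of each subunit of a heterodimeric triplet polymerase ribozyme, each put through one triplicate in vitro selection round with frozen incubation at −7 °C, gel excision of extended constructs, streptavidin-bead capture and RT-PCR. Fitness is a logarithmic ratio of genotype enrichment to wild-type enrichment, from inverse-variance-weighted replicate averages, with the logarithm in base 2.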

In order of falling “polymerase ribozyme fitness (log ratio)” value:
1. C11G G69U  0.709
2. C11G A37U C70A A83C A121C  0.293
3. C11G G61U U87G  0.243
4. C11G C101U  0.142
5. C11G C56U  0.107
6. C11U C28U G120A C124G  0.0586
7. C11G G42A A121C  0.0348
8. C11G G36C G77A  -0.0394
9. C11G C72G  -0.147
10. C11U C15G G47A C86A A90G G117U G120C  -0.496
11. C11U C73A  -0.524
12. C11U C12G  -0.553
13. C11G C49U C72G  -0.598
14. C11U C12U  -0.628
15. C12A A83U  -0.825
16. C11U G45A  -0.828
17. C11U G48U  -0.841
18. C11U C15A C40U C73A C123G  -0.889
19. C12A A26G G57A U78A C124G  -1.04
20. C11U C13U U32C  -1.05
21. C11G C114A  -1.06
22. C11G G42U U59A G60U  -1.24
23. C11U G113A  -1.33
24. C11U U112G G127A  -1.34
25. C12A A46U G47C  -1.36
26. C11G C73U C114U  -1.42
27. C11G C70A A95C U112A U132C  -1.46
28. C11G G42A C72A C88U  -1.46
29. C11G C73G C85A A111G  -1.47
30. C11A U132C  -1.49
31. C11U G77U A91U  -1.63
32. C11U G48A  -1.69
33. C12A C28U  -1.82
34. C11U G17U G48A C124G  -1.88
35. C11U C85U  -1.93
36. C12A A84U  -1.96
37. C11U U81A  -2.1
38. C11U U92A  -2.13
39. C11U U55G  -2.15
40. C11G A105U  -2.2
41. C11G U14A A46U G61A C62U  -2.33
42. C11U C104U U126G  -2.39
43. C11U C115A U125G  -2.51
44. C11U C104A  -2.66
45. C11G A24G C49G U59G  -2.66
46. C11U G58A G71U A90G U116C  -2.7
47. C11A U81A  -2.74
48. C11A G69U C70U  -2.77
49. C11G A74U A108G  -2.79
50. C12A A41U G48A G77U A83G  -2.82
51. C11U G48U U59C A84G C101A  -2.88
52. C11A G48A C62U G128C  -3
53. C11U C22G C40U  -3.22
54. C11A G51U C85U G120C  -3.38
55. C11A G93C C102A  -3.43
56. C11G A46U G60U A74C A121U  -3.52
57. C11U A18G  -3.57
58. C11U G42A C85G  -3.59
59. C11G A29G A43C C49A A74C C85G G113A G135U  -3.78
60. C11G A18U A46U G57A  -4.09
61. C11G G44C G77A C80A U130A U131A  -4.18
62. C11G C64U C114G C115A C123G C124A  -4.26
63. C11G A29C U55G A84G G113A  -4.47
64. C11G G35A A84U  -4.58
65. C11U U32A C34U G69U C88A  -4.62
66. C11U U21G G42A U96G  -4.94
67. C11G C31A  -4.96
68. C11G G65C  -5.03
69. C11U A16U A26U C62A G120C  -5.1
70. C11G C20U C22A G39C  -5.35
71. C11G C31U G52A U96G G120C  -5.5
72. C11G C70G G77U A103C A121C U132A  -5.85
73. C12A C49A C70A C97A G120U U130G  -5.85
74. C11G G107C U112C C123U G128C  -5.88
75. C11U C79G U92G  -6.09
76. C11G G61A A90U U109G G117A  -6.12
77. C11G C15A G19U G69C C98A C114U  -6.19
78. C11G A46U C56U C70A C85A C104U  -6.28
79. C11G A26C G77U U81A C97U G113A  -6.37
80. C11U C104G  -6.74
81. C11G G57U U67G G120A  -6.74
82. C11G A18C C49A C88G U109A  -6.8
83. C11U U14G G19U A29G C31U U32C C72G A111U U129A  -7.29
84. C11U A46C G51U C86G C102A  -8.49
